Results taken from PMC3226441, “Generation of recombinant single-chain antibodies neutralizing the cytolytic activity of vaginolysin, the main virulence factor of Gardnerella vaginalis” (BMC Biotechnology, 2011).

Key:
[1] = target: T1, vaginolysin (VLY), recombinant (Gardnerella vaginalis); test: cell-based or functional assay
[2] = target: T1, vaginolysin (VLY), recombinant; test: ELISA; indirect ELISA; recombinant purified VLY (5 μg/ml, 50 mM Na-carbonate pH 9.5) coated on MaxiSorp plates; scFv 50 μg/ml to 20 ng/ml, 1 h at RT; detected by anti-His5 MAb and HRP-labelled anti-mouse IgG; apparent Kd = molar concentration at the mid-point of the titration curve; conditions: both partners purified

B1: anti-VLY scFv 23A2 (VL-VH) (scFv, V domains shown)
VH: QVQLEQSGAELVRSGASVKISCKASGYTFPSYNMHWVKQTPGQGLEWIGYIYPGNGVTNYNQKFKGKATLTADTSSSTAYMQISSLTSEDSAVYFCAREEGGNLLWGHFAMDYWGQGTSVTVSS
VL: DIVMTQTTLSLPVSLGDQASISCRSSQSLVHSNGNTYLHWYLQKPGQSPKLLIYKVSNRFSGVPDRFSGSGSGTDFTLKISRVEAEDLGVYFCSQSTHVPPTFGGGTKLEIR
notes: also called 23A2-derived scFv (variant VL-VH); source: E. coli BL21(DE3), from inclusion bodies, renatured, purified (Ni-NTA); not shown: His6, N-terminal, kept
other [1]: 110 nM
Kd [2]: 92 nM

B2: anti-VLY scFv 23A2 (VH-VL) (scFv, V domains shown)
VH: QVQLEQSGAELVRSGASVKISCKASGYTFPSYNMHWVKQTPGQGLEWIGYIYPGNGVTNYNQKFKGKATLTADTSSSTAYMQISSLTSEDSAVYFCAREEGGNLLWGHFAMDYWGQGTSVTVSS
VL: DIVMTQTTLSLPVSLGDQASISCRSSQSLVHSNGNTYLHWYLQKPGQSPKLLIYKVSNRFSGVPDRFSGSGSGTDFTLKISRVEAEDLGVYFCSQSTHVPPTFGGGTKLEIR
notes: also called 23A2-derived scFv (variant VH-VL); source: E. coli BL21(DE3), from inclusion bodies, renatured, purified (Ni-NTA); not shown: His6, N-terminal, kept
other [1]: 150 nM
Kd [2]: 98 nM

B3: anti-VLY scFv 9B4 (VL-VH) (scFv, V domains shown)
VH: QVQLEQSGPGLVAPSESLTITCTVSGFSLNSYGVHWVRQPPGKGLEWVGVMWAGGNTSYNSALMSRLSISKDNSKSQVFLKMNSLQTDDTAIYYCARARGAMDYWGQGTSVTVSS
VL: DIVMTQTTSHLSVSLGDRVTIACKASAHINNWLAWYQQKPGNAPSLLIAGATGLETGVPSRFSGSGSGKDFTLSISSLQTEDVATYYCQQYWDTPYTFGGGTKLEIR
notes: also called 9B4-derived scFv (variant VL-VH); source: E. coli BL21(DE3), from inclusion bodies, renatured, purified (Ni-NTA); not shown: His6, N-terminal, kept
other [1]: 37 nM
Kd [2]: 11 nM

B4: anti-VLY scFv 9B4 (VH-VL) (scFv, V domains shown)
VH: QVQLEQSGPGLVAPSESLTITCTVSGFSLNSYGVHWVRQPPGKGLEWVGVMWAGGNTSYNSALMSRLSISKDNSKSQVFLKMNSLQTDDTAIYYCARARGAMDYWGQGTSVTVSS
VL: DIVMTQTTSHLSVSLGDRVTIACKASAHINNWLAWYQQKPGNAPSLLIAGATGLETGVPSRFSGSGSGKDFTLSISSLQTEDVATYYCQQYWDTPYTFGGGTKLEIR
notes: also called 9B4-derived scFv (variant VH-VL); source: E. coli BL21(DE3), from inclusion bodies, renatured, purified (Ni-NTA); not shown: His6, N-terminal, kept
other [1]: 51 nM
Kd [2]: 15 nM
